Common to all, as to assay: BLI (Octet), binder on anti-human Fc tips
The target of assay [1] is T1, human MAdCAM (human, UniProt Q13477 19-317, limits assumed).
T1 construct: also called huMAdCAM; human MAdCAM-1
T1 sequence (looked up): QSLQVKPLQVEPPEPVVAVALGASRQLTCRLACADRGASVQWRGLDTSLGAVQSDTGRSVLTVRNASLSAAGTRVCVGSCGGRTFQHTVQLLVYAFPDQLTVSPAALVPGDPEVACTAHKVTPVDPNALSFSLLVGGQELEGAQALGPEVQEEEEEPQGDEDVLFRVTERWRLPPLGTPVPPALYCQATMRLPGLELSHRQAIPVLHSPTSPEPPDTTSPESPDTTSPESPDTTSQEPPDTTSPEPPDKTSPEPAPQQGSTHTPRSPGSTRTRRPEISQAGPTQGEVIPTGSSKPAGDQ

The target in assay [2] is T2, cyno MAdCAM (cynomolgus).
T2 construct: also called cynomolgus MAdCAM

For assay [3], the target named is T3, mouse MAdCAM (mouse, UniProt Q61826 22-365, limits assumed).
T3 construct: also called mouse MAdCAM-1; muMAdCAM
T3 sequence (looked up): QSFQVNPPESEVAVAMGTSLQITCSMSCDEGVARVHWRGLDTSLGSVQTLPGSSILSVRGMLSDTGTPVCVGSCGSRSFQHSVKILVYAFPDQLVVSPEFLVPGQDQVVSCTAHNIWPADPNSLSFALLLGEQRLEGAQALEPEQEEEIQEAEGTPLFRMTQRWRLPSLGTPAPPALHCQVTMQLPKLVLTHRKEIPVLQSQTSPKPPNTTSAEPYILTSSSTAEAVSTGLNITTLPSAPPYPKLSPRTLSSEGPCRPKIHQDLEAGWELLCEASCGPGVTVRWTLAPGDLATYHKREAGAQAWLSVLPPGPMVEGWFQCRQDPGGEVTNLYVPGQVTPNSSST

“And” between values parts separate entries of the source, which are not always exact repeats. Identical values can stand only once.

B1: MIAB1 (antibody, V domains shown)
VH: EVQLLESGGGLVQPGGSLRLSCAASGFTFDDYAMHWVRQAPGKGLEWVASITSSSAFIDYADSVKGRFTISRDNSKNTLYLQMNSLRAEDTAVYYCAREPVDWNSYFDLWGQGTLVTVSS
VL: EIVMTQSPATLSVSPGERATLSCRASQGISNSYLAWYQQKPGQAPRLLIYGASTRATGIPARFSGSGSGTEFTLTISSLQSEDFAVYYCQQYYTYPPTFGQGTKVEIK
notes: tested with human Fc
Turning to B1, the Kd in assay [1] worked out at 38.4 nM; in assay [2] it was 26.5 nM; in assay [3] it was 184 nM.

B2: MIAB2 (antibody, V domains shown)
VH: EVQLLESGGGLVQPGGSLRLSCAASGFTFDDYAMHWVRQAPGKGLEWVASITSSSAFIDYADSVKGRFTISRDNSKNTLYLQMNSLRAEDTAVYYCARERVDWNSYFDLWGQGTLVTVSS
VL: EIVMTQSPATLSVSPGERATLSCRASQGISNSYLAWYQQKPGQAPRLLIYGASTRATGIPARFSGSGSGTEFTLTISSLQSEDFAVYYCQQYYTYPPTFGQGTKVEIK
notes: tested with human Fc
As for B2, the Kd in assay [1] came out at 23.2 nM; in assay [2] it was 18.8 nM; in assay [3], 147 nM.

B3: MIAB208 (antibody, V domains shown)
VH: EVQLLESGGGLVQPGGSLRLSCAASGFTFDDYAMHWVRQAPGKGLEWVASITSSSAFIDYADSVKGRFTISRDNSKNTLYLQMNSLRAEDTAVYYCARERVDWNSYFDLWGQGTLVTVSS
VL: EIVMTQSPATLSVSPGERATLSCRASQSVYSNLAWYQQKPGQAPRLLIYDASTRATGIPARFSGSGSGTEFTLTISSLQSEDFAVYYCQQYHIWPPTFGQGTKVEIK
notes: tested with human Fc
Regarding B3, the Kd came out at 20.2 nM in assay [1], 142 nM in assay [2] and 75.1 nM in assay [3].

B4: MIAB25 (antibody, V domains shown)
VH: EVQLLESGGGLVQPGGSLRLSCAASGFIFDDYAMHWVRQAPGKGLEWVASITSSSAFIDYADSVKGRFTISRDNSKNTLYLQMNSLRAEDTAVYYCARERVDWFSYFDLWGQGTLVTVSS
VL: EIVMTQSPATLSVSPGERATLSCRASQSVSNNLVWYQQKPGQAPRLLIYDASTRATGIPARFSGSGSGTEFTLTISSLQSEDFAVYYCQQYSHWPPTFGQGTKVEIK
notes: tested with human Fc
Consider B4, for which the Kd in assay [1] amounted to 46.9 nM; in assay [2], 60.8 nM; in assay [3], 131 nM.

B5: MIAB206 (antibody, V domains shown)
VH: EVQLLESGGGLVQPGGSLRLSCAASGFTFDDYAMHWVRQAPGKGLEWVASITSSSAFIDYADSVKGRFTISRDNSKNTLYLQMNSLRAEDTAVYYCARERVDWYSYFDLWGQGTLVTVSS
VL: EIVMTQSPATLSVSPGERATLSCRASQSVYSNLAWYQQKPGQAPRLLIYRASTRATGIPARFSGSGSGTEFTLTISSLQSEDFAVYYCQQYHIWPPTFGQGTKVEIK
notes: tested with human Fc
Turning to B5, the Kd is 74.3 nM in assay [1], 89.5 nM in assay [2] and 7.6 nM in assay [3].

B6: MIAB207 (antibody, V domains shown)
VH: EVQLLESGGGLVQPGGSLRLSCAASGFTFDDYAMHWVRQAPGKGLEWVASITSSSAFIDYADSVKGRFTISRDNSKNTLYLQMNSLRAEDTAVYYCARERVDWNSYFDLWGQGTLVTVSS
VL: EIVMTQSPATLSVSPGERATLSCRASQSVYSNLVWYQQKPGQAPRLLIYRASTRATGIPARFSGSGSGTEFTLTISSLQSEDFAVYYCQQYHIWPPTFGQGTKVEIK
notes: tested with human Fc
With B6, the Kd in assay [1] amounted to 83.5 nM; in assay [2] it was 73.7 nM; in assay [3] it was 24 nM.

B7: MIAB205 (antibody, V domains shown)
VH: EVQLLESGGGLVQPGGSLRLSCAASGFTFDDYAMHWVRQAPGKGLEWVASITSSSAFIDYADSVKGRFTISRDNSKNTLYLQMNSLRAEDTAVYYCARERVDWFSYFDLWGQGTLVTVSS
VL: EIVMTQSPATLSVSPGERATLSCRASQSVYSNLAWYQQKPGQAPRLLIYRASTRATGIPARFSGSGSGTEFTLTISSLQSEDFAVYYCQQYHIWPPTFGQGTKVEIK
notes: tested with human Fc
As to B7, the Kd in assay [1] was found to be 56.3 nM; in assay [2], 117 nM; in assay [3] it was 42.2 nM.

B8: MIAB26 (antibody, V domains shown)
VH: EVQLLESGGGLVQPGGSLRLSCAASGFTFDDYAMHWVRQAPGKGLEWVASITSSSAFIDYADSVKGRFTISRDNSKNTLYLQMNSLRAEDTAVYYCARERVDWNSYFDLWGQGTLVTVSS
VL: EIVMTQSPATLSVSPGERATLSCRASQSVYSNLAWYQQKPGQAPRLLIYRASTRATGIPARFSGSGSGTEFTLTISSLQSEDFAVYYCQQYHIWPPTFGQGTKVEIK
notes: tested with human Fc
For the molecule B8, the Kd is 49.1 nM in assay [1], 78.5 nM in assay [2] and 9.9 nM in assay [3].

B9: MIAB12 (antibody, V domains shown)
VH: EVQLLESGGGLVQPGGSLRLSCAASGFTFDDYAMHWVRQAPGKGLEWVASITSSSAFIDYADSVKGRFTISRDNSKNTLYLQMNSLRAEDTAVYYCARERVDWNSYFDLWGQGTLVTVSS
VL: EIVMTQSPATLSVSPGERATLSCRACPGISNSYLAWYQQKPGQAPRLLIYGASTRATGIPARFSGSGSGTEFTLTISSLQSEDFAVYYCQQYYTYPPTFGQGTKVEIK
notes: tested with human Fc
B9: the Kd in assay [1] was 19.3 nM; in assay [2], 19.5 nM; in assay [3], 77.5 nM.

B10: MIAB122 (antibody, V domains shown)
VH: EVQLLESGGGLVQPGGSLRLSCAASGFIFDDYAMHWVRQAPGKGLEWVASITSSSAFIDYADSVKGRFTISRDNSKNTLYLQMNSLRAEDTAVYYCARERVDWFSYFDLWGQGTLVTVSS
VL: EIVMTQSPATLSVSPGERATLSCRACPSVSNNYLVWYQQKPGQAPRLLIYDASTRATGIPARFSGSGSGTEFTLTISSLQSEDFAVYYCQQYSHWPPTFGQGTKVEIK
notes: tested with human Fc
For B10, the Kd stood at 48.2 nM in assay [1], 68.5 nM in assay [2] and 130 nM in assay [3].

B11: MIAB13 (antibody, V domains shown)
VH: EVQLLESGGGLVQPGGSLRLSCAASGFTFDDYAMHWVRQAPGKGLEWVASITSSSAFIDYADSVKGRFTISRDNSKNTLYLQMNSLRAEDTAVYYCARERVLWNSYFDLWGQGTLVTVSS
VL: EIVMTQSPATLSVSPGERATLSCRASQNVNNNLAWYQQKPGQAPRLLIYDATTRATGIPARFSGSGSGTEFTLTISSLQSEDFAVYYCQQYYHWPQTFGQGTKVEIK
notes: tested with human Fc
Turning to B11, the Kd in assay [1] turned out to be 45.9 nM; in assay [2] it was 33.4 nM; in assay [3], 6.6 nM.

B12: MIAB121 (antibody, V domains shown)
VH: EVQLLESGGGLVQPGGSLRLSCAASGFIFDDYAMHWVRQAPGKGLEWVASITSSSAFIDYADSVKGRFTISRDNSKNTLYLQMNSLRAEDTAVYYCARERVDWFSYFDLWGQGTLVTVSS
VL: EIVMTQSPATLSVSPGERATLSCRACPSVSNNLVWYQQKPGQAPRLLIYDASTRATGIPARFSGSGSGTEFTLTISSLQSEDFAVYYCQQYSHWPPTFGQGTKVEIK
notes: tested with human Fc
Regarding B12, the Kd was 50.4 nM in assay [1], 92 nM in assay [2] and 117 nM in assay [3].

B13: MIAB123 (antibody, V domains shown)
VH: EVQLLESGGGLVQPGGSLRLSCAASGFIFDDYAMHWVRQAPGKGLEWVASITSSSAFIDYADSVKGRFTISRDNSKNTLYLQMNSLRAEDTAVYYCARERVDWFSYFDLWGQGTLVTVSS
VL: EIVMTQSPATLSVSPGERATLSCRASQSVSNNYLVWYQQKPGQAPRLLIYDASTRATGIPARFSGSGSGTEFTLTISSLQSEDFAVYYCQQYSHWPPTFGQGTKVEIK
notes: tested with human Fc
Turning to B13, the Kd was 39.7 nM in assay [1], 77.9 nM in assay [2] and 164 nM in assay [3].

B14: MIAB209 (antibody, V domains shown)
VH: EVQLLESGGGLVQPGGSLRLSCAASGFTFDDYAMHWVRQAPGKGLEWVASITSSSAFIDYADSVKGRFTISRDNSKNTLYLQMNSLRAEDTAVYYCARERVDWNSYFDLWGQGTLVTVSS
VL: EIVMTQSPATLSVSPGERATLSCRASQSVYSNYLAWYQQKPGQAPRLLIYRASTRATGIPARFSGSGSGTEFTLTISSLQSEDFAVYYCQQYSHWPPTFGQGTKVEIK
notes: tested with human Fc
In the case of B14, the results for the Kd in assay [1], in assay [2] and in assay [3] were 61.1 nM, 99 nM and 35.2 nM, respectively.

B15: MIAB169 (antibody, V domains shown)
VH: EVQLLESGGGLVQPGGSLRLSCAASGFTFSDFWMHWVRQAPGKGLEWISYISGDSGYTNYADSVKGRFTISRDNSKNTLYLQMNSLRAEDTAVYYCARDRPYYYIMDVWGKGTTVTVSS
VL: DIQMTQSPSSLSASVGDRVTITCRASQSVSRSLAWYQQKPGKAPKLLIYAASSLQSGVPSRFSGSGSGTDFTLTISSLQPEDFATYYCQQYKSYPVTFGQGTKVEIK
notes: tested with human Fc; also called MIAB169-CHO; MIAB169-HEK
Turning to B15, in assay [1], the Kd was 266 nM and 340 nM; the “fold lower affinity than parent PRNT1” value is 10 fold; the koff worked out at 0.0738 s⁻¹; the kon was 278000 M⁻¹ s⁻¹. Moreover, binding in assay [2] was put at a Kd of 153 nM.

These data come from patent publication US20240010722A1 (published 2024).
